Laboratory results taken from patent publication US20170081401A1 (CLOSED JOINT STOCK COMPANY BIOCAD, published 2017).

Legend:
human IL-17A [1] = target: T1, human IL-17A (human, UniProt Q16552 20-155, limits assumed); experiment: BLI, OctetRed 96, BCD085 immobilized on AR2G sensors; human against monkey IL-17A
T1 construct: also called human recombinant IL-17
Method: (§1) The affinity of BCD085 binding with human, monkey and rat IL-17A was analyzed on OctetRed 96 (ForteBio). BCD085 was non-specifically immobilized on the surface of amine reactive second-generation sensors (AR2G) according to the standard protocol described in the manufacturer's manual. The test was conducted at a temperature of 30° C. and using PBS with 0.1% Tween-20 and 0.1% BSA as a working buffer.
(§2) Binding curves (after subtracting a reference signal) were analyzed using Octet Data Analysis software (Version 7.0) in accordance with the standard procedure and using 1:1 interaction model.

human IL-17A [2] = target: T1, human IL-17A; experiment: BLI (OctetRed 96), BCD085 on AR2G sensors, human IL-17A as analyte, row 'Concentration (nm)' 34,3; 1:1 model; R^2 0,937248
Method: as §1, §2

[3] = target: T2, monkey IL-17A (Macaca mulatta) (Macaca mulatta, UniProt F6T3G5 24-155); experiment: BLI (OctetRed 96), BCD085 on AR2G sensors, monkey IL-17A as analyte, row 'Concentration (nm)' 68,7; 1:1 model; R^2 0,956946
T2 sequence (F6T3G5 entry or part of it): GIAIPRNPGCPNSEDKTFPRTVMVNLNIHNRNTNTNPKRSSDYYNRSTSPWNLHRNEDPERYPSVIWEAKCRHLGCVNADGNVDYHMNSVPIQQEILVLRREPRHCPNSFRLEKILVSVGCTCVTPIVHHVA
Method: as §1, §2

[4] = target: T2, monkey IL-17A (Macaca mulatta); experiment: BLI (OctetRed 96), BCD085 on AR2G sensors, monkey IL-17A as analyte, row 'Concentration (nm)' 34,4; 1:1 model; R^2 0,964905
Method: as §1, §2

human IL-17A [5] = target: T1, human IL-17A; experiment: cell-based or functional assay
human IL-17A [6] = target: T1, human IL-17A; experiment: BLI (OctetRed 96), BCD085 on AR2G sensors, human IL-17A as analyte, row 'Concentration (nm)' 68,6; 1:1 model; R^2 0,973327
Method: as §1, §2

[7] = target: T2, monkey IL-17A (Macaca mulatta); experiment: BLI (OctetRed 96), BCD085 on AR2G sensors, monkey IL-17A as analyte, row 'Concentration (nm)' 17,2; 1:1 model; R^2 0,983707
Method: as §1, §2

rat IL-17A = target: T3, rat IL-17A (rat, UniProt Q61453 18-150, limits assumed); experiment: BLI, OctetRed 96, BCD085 immobilized on AR2G sensors, IL-17A as analyte
T3 sequence (looked up): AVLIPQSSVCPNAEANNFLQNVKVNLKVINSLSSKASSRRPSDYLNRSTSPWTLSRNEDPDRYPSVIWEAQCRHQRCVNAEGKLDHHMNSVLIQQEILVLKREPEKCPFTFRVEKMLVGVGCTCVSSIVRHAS
Method: as §1, §2

T1 sequence (Q16552 20-155 limits assumed): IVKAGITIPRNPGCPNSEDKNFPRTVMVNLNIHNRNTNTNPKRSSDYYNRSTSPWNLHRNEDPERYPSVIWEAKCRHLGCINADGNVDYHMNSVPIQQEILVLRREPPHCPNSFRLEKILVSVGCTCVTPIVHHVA

B1: BCD085 monoclonal anti-IL-17A antibody (antibody, V domains shown)
VH: QVQLVQSGGGLVQPGGSLRLSCAADGFTFSNYAMSWVRQAPGKGLEWVSRIEGGIGSSTYAVDSVKDRFTISRDDAKNTLYLQMSSLKTEDTAVYYCAVNYYGMYYWGQGTLVTVSS
VL: QSVLTQPPSVSVAPGKTVTISCTGTSEDVGFGNYVSWYQHLPGTAPKLLIYRVNTRPSGVPDRFSGSQSGNTASLTISGLQAEDEADYYCSSYKAGGTYVFGGGTKLTVLG
notes: Full-length antibody produced in CHO-S cells; also called the candidate; monoclonal anti-IL-17A antibody of the invention
In the case of B1, the “fold stronger affinity than to monkey IL-17A” value (human IL-17A [1]) is reported as 1000 fold, the Kd (human IL-17A [2]) is reported as < 0.001 nM and the Kd [3] is reported as 5.97 nM. For the same binder, the Kd [4] was 4.15 nM, the “IC50, blocking of IL-17-induced IL-6 production by human HT1080 cells (40 ng/ml IL-17 + 20 ng/ml TNF-alpha), IL-6 measured by ELISA” value (human IL-17A [5]) was 0.04 nM and the Kd (human IL-17A [6]) was < 0.001 nM. For the same binder, the Kd [7] was 2.22 nM and the binding result (rat IL-17A) was “no binding (tested: 126 nM (highest concentration titrated))”.
